Numbering of substitutions follows the chain as printed.
Key:
[1] = target: T1, T CELLS (human, UniProt P07766;P09693); test: flow cytometry titration on purified human T cells, PE anti-human secondary, x-fold over background
T1 construct: native, on the surface of purified human T cells; The sheets print only 'T CELLS'; also called human CD3 on purified human T cells; CD3 epsilon/gamma complex
Excerpt: (§1) Cells (T cells or human SCLC cells) were stained with increasing concentrations of two-step purified DLL3/CD3 binding proteins with increasing concentrations in FACS buffer (PBS/0.5% BSA/0.05% sodium azide). Bound molecules were detected with PE-conjugated anti-human secondary antibody (Sigma-Aldrich, #P8047).

[2] = target: T2, human DLL3 (endogenous, on SCLC cell lines NCI-H82 and SHP77 and in SCLC tissue) (human, UniProt Q9NYJ7 27-618); test: flow cytometry titration on NCI-H82 cells, PE anti-human secondary, x-fold over background
T2 construct: whole, on cells; also called SCLC cell lines expressing DLL3
T2 sequence (looked up): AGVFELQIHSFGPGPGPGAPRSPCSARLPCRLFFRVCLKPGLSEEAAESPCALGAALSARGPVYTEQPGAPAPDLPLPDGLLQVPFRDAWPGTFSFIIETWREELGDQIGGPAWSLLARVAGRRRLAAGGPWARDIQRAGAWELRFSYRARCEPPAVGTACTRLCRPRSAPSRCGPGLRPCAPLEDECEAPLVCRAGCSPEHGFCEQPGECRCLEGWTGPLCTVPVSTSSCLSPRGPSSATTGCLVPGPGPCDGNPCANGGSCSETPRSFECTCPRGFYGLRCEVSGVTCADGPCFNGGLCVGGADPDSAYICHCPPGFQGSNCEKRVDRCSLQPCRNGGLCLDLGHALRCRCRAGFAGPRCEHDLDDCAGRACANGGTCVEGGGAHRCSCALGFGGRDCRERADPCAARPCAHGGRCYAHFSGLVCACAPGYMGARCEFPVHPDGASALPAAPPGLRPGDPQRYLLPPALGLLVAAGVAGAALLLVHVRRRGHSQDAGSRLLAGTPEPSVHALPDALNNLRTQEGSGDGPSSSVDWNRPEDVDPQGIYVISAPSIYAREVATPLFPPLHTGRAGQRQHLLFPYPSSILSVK
Excerpt: as §1

[3] = target: T2, human DLL3 (endogenous, on SCLC cell …); test: flow cytometry titration on SHP77 cells, PE anti-human secondary, x-fold over background
Excerpt: as §1

[4] = target: T3, Cyno DLL3-His (cynomolgus monkey, UniProt Q9NYJ7 27-492 (human entry)); test: SPR (ProteOn XPR36), bispecific captured on protein A/G, DLL3 as analyte, Example 4A
T3 construct: also called cy DLL3; recombinant cyno DLL3-ECD
T3 chain: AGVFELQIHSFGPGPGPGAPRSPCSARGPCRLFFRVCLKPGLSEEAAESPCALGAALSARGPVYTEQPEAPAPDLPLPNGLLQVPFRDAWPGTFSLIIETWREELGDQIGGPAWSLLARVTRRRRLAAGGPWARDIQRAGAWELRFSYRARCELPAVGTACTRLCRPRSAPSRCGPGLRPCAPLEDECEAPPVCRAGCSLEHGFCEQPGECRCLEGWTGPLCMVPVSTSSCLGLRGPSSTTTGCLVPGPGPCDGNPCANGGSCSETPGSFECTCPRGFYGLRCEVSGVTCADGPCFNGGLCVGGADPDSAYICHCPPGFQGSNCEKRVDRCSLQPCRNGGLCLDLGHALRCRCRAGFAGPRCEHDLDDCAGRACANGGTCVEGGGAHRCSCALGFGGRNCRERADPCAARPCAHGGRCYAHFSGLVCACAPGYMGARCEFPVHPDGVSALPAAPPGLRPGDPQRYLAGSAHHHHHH
Protocol: The binding affinity of purified DLL3/CD3 bispecific constructs for recombinant human and cyno DLL3-ECD and Fc-fusion proteins of human and cyno CD3 εγ subunits was determined by Surface Plasmon Resonance (SPR), using a ProteOn XPR36 instrument (Bio-Rad). The running buffer and all dilutions (except where stated) were done in PBS-T-EDTA. The GLM sensor chip (Bio-Rad) was normalized and pre-conditioned as per the manufacturer's recommendations. The sensor chip was activated with equal mixture of EDC/s-NHS in the horizontal direction for 300 sec at a flow rate of 30 ul/min and immobilized with protein A/G (20 ug/ml in 10 mM acetate pH 4.5) in the horizontal direction for 300 sec at a flowrate of 30 ul/min resulting in ˜5000 RU of protein A/G on the surface. The sensor chip was deactivated with 1M ethanolamine HCl in the horizontal direction for 300 sec at a flowrate of 30 μl/min.
For binding kinetic determination to DLL3, bispecific molecules were captured individually on the protein A/G surface vertically for 250 sec at a flowrate of 25 μl/min. The baseline was stabilized by injecting PBS-T-EDTA for 60 sec at a flowrate of 40 μl/min horizontally. The analyte (hu DLL3 or cy DLL3) was injected horizontally over the captured antibody for 600 sec at a flowrate of 40 μl/min and a dissociation for 2700 sec.
The inter spot (interactions with sensor surface) and blank (PBS-T-EDTA) were subtracted from the raw data.

[5] = target: T4, Cyno CD3 E+G HuFc-6xHis (cynomolgus monkey); test: SPR (ProteOn XPR36), CD3εγ-Fc amine-coupled, bispecific as analyte, equilibrium fit, Example 4A
T4 construct: also called cy CD3εγ-Fc; Recomb; Cyno CD3 εγ
T4 sequence (chain, as listed by the source limits assumed): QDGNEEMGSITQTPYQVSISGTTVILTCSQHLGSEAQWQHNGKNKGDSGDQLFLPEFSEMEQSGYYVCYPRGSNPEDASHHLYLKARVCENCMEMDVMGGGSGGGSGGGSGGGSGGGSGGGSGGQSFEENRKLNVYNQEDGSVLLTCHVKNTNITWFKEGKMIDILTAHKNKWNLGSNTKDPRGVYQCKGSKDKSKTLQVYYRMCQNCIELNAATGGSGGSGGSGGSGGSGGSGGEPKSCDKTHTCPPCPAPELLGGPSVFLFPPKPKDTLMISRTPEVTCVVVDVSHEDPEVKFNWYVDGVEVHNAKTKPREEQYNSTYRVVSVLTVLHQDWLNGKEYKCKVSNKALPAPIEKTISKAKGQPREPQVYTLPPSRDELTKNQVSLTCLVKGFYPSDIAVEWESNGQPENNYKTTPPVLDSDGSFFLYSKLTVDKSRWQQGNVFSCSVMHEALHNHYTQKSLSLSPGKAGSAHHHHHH

T1 sequence (P07766 23-207, chain 1 of 2): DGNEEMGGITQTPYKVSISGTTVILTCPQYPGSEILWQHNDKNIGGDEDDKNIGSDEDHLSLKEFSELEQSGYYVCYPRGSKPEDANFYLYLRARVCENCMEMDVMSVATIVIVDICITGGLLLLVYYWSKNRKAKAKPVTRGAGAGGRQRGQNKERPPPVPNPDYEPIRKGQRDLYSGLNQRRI
T1 sequence (P09693 23-182, chain 2 of 2): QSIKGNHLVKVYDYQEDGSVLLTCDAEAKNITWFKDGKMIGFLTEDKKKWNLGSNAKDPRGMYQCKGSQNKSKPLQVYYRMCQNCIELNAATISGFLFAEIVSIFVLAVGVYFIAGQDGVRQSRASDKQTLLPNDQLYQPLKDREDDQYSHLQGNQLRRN

B1: DLL3#2/CD3#1 (bispecific antibody, human IgG1, kappa, lambda, L234A L235A)
chain 1: DIQMTQSPSAMSASVGDRVTITCRASQGISNYLAWFQQKPGKVPEPLIYAASSLQSGVPSRFSGSGSVTEFTLTISSLQPEDFATYYCLQHNSSPYTFGQGTKLEIKRTVAAPSVFIFPPSDEQLKSGTASVVCLLNNFYPREAKVQWKVDNALQSGNSQESVTEQDSKDSTYSLSSTLTLSKADYEKHKVYACEVTHQGLSSPVTKSFNRGECGGGGSEGKSSGSGSESKSTEGKSSGSGSESKSTGGGGSQVQLVQSGAEVKKPGASVKVSCKASGYTFTSYYMHWVRQAPGQGLEWMGIINPSGGSTSYAQKFQGRVTMTRDTSTSTVYMELSSLRSEDTAVYYCARGEAVGGNYYYYGMDVWGQGTTVTVSSASTKGPSVFPLAPSSKSTSGGTAALGCLVKDYFPEPVTVSWNSGALTSGVHTFPAVLQSSGLYSLSSVVTVPSSSLGTQTYICNVNHKPSNTKVDKRVEPKSCDKTHTCPPCPAPEAAGGPSVFLFPPKPKDTLMISRTPEVTCVVVDVSHEDPEVKFNWYVDGVEVHNAKTKPREEQYNSTYRVVSVLTVLHQDWLNGKEYKCKVSNKALPAPIEKTISKAKGQPREPQVYTLPPSREEMTKNQVSLWCLVKGFYPSDIAVEWESNGQPENNYKTTPPVLDSDGSFFLYSKLTVDKSRWQQGNVFSCSVMHEALHNHYTQKSLSLSPG
chain 2: EAVVTQEPSLTVSPGGTVTLTCRSSTGAVTTSNYANWVQEKPGQLPRGLIGGTNKRAPWVPARFSGSLLGGKAALTLSGAQPEDEAEYFCALWYSNLWVFGGGTKLTVLGQPKAAPSVTLFPPSSEELQANKATLVCLISDFYPGAVKVAWKADGSPVNTGVETTTPSKQSNNKYAASSYLSLTPEQWKSHRSYSCQVTHEGSTVEKTVAPAECSGGGGSEGKSSGSGSESKSTEGKSSGSGSESKSTGGGGSEVQLVESGGGLVQPGGSLKLSCAASGFTFNTYAMNWVRQAPGKGLEWVARIRSKYNNYATYYADSVKDRFTISRDDSKNTAYLQMNNLKTEDTAVYYCVRHGNFGNSYVSWFAYWGQGTLVTVSAASTKGPSVFPLAPSSKSTSGGTAALGCLVKDYFPEPVTVSWNSGALTSGVHTFPAVLQSSGLYSLSSVVTVPSSSLGTQTYICNVNHKPSNTKVDKRVEPKSCDKTHTCPPCPAPEAAGGPSVFLFPPKPKDTLMISRTPEVTCVVVDVSHEDPEVKFNWYVDGVEVHNAKTKPREEQYNSTYRVVSVLTVLHQDWLNGKEYKCKVSNKALPAPIEKTISKAKGQPREPQVYTLPPSREEMTKNQVSLSCAVKGFYPSDIAVEWESNGQPENNYKTTPPVLDSDGSFFLVSKLTVDKSRWQQGNVFSCSVMHEALHNRFTQKSLSLSPG
notes: Heterodimer of one DLL3 chain and one CD3 chain (scFab-Fc, knob-in-hole)
- EC50 (read off the curve) [1]: ~10 nM

B2: DLL3#4/CD3#1 (bispecific antibody, human IgG1, kappa, lambda, L234A L235A)
chain 1: not shown
chain 2: B1 chain 2
notes: as for B1
- EC50 (read off the curve) [2]: ~0.1 nM
- EC50 (read off the curve) [3]: ~2 nM

B3: DLL3#3/CD3#1 (bispecific antibody, human IgG1, kappa, lambda, L234A L235A)
chain 1: DIQMTQSPSAMSASVGDRVTITCRASQGISNYLVWFQQKPGKAPKRLIYAVSSLYSGVPSRFSGSGSGTEFTLTISSLQPEDFATYYCLQHDSYPYTFGQGTKLEIKRTVAAPSVFIFPPSDEQLKSGTASVVCLLNNFYPREAKVQWKVDNALQSGNSQESVTEQDSKDSTYSLSSTLTLSKADYEKHKVYACEVTHQGLSSPVTKSFNRGECGGGGSEGKSSGSGSESKSTEGKSSGSGSESKSTGGGGSQVQLVQSGAEVKKPGASVKVSCKASGYTFTSYYVHWVRQAPGQGLEWMVIINPGGGTTSYAQKFLGRVTMTRDTSTNTVYMELKSLRSEDTAVYYCARGEAVTGNYFYYGMDVWGQGTTVTVSSASTKGPSVFPLAPSSKSTSGGTAALGCLVKDYFPEPVTVSWNSGALTSGVHTFPAVLQSSGLYSLSSVVTVPSSSLGTQTYICNVNHKPSNTKVDKRVEPKSCDKTHTCPPCPAPEAAGGPSVFLFPPKPKDTLMISRTPEVTCVVVDVSHEDPEVKFNWYVDGVEVHNAKTKPREEQYNSTYRVVSVLTVLHQDWLNGKEYKCKVSNKALPAPIEKTISKAKGQPREPQVYTLPPSREEMTKNQVSLWCLVKGFYPSDIAVEWESNGQPENNYKTTPPVLDSDGSFFLYSKLTVDKSRWQQGNVFSCSVMHEALHNHYTQKSLSLSPG
chain 2: B1 chain 2
notes: as for B1
- Kd [4]: < 0.01 nM

B4: DLL3#3/CD3#2 (bispecific antibody, human IgG1, kappa, lambda, L234A L235A)
chain 1: B3 chain 1
chain 2: B1 chain 2 with N309I
notes: as for B1
- Kd [4]: < 0.01 nM
- Kd [5]: 100 nM

— US20220251236A1 (Boehringer Ingelheim, published 2022)
